# Target: human CD4 on cells (MT-2, MT-4 cells; mouse SR.hCD4 cells transfected with human CD4) (human) (UniProt P01730)
# Test: cell-based or functional assay
substance,measurement,value
synthetic soluble multiple-branched peptide (MBP) corresponding to amino acids 51-74 of CD38 (CD3851-74 MBP),"EC50, inhibition of HIV-1IIIB infection of MT-4 cells (p24 ELISA, day 3)",12 nM
same,"EC90, inhibition of HIV-1IIIB infection of MT-4 cells (p24 ELISA, day 3)",75 nM
